Assay results as given in doi:10.1101/2021.04.22.440577 (bioRxiv, 2021).

B1: Structured central part of N-Tir (N-Tir 60-200, NS-Tir) (domain or fragment, enteropathogenic Escherichia coli (EPEC), UniProt B7UM99 60-200, looked up)
chain: SVDSRDIPGLPTNPSRLAAATSETCLLGGFEVLHDKGPLDILNTQIGPSAFRVEVQADGTHAAIGEKNGLEVSVTLSPQEWSSLQSIDTEGKNRFVFTGGRGGSGHPMVTVASDIAEARTKILAKLDPDNHGGRQPKDVDT
B2: N-terminal cytosolic region of EPEC Tir (N-Tir, residues 1-233) (domain or fragment, enteropathogenic Escherichia coli (EPEC), UniProt B7UM99 1-233, looked up)
chain: MPIGNLGNNVNGNHLIPPAPPLPSQTDGAARGGTGHLISSTGALGSRSLFSPLRNSMADSVDSRDIPGLPTNPSRLAAATSETCLLGGFEVLHDKGPLDILNTQIGPSAFRVEVQADGTHAAIGEKNGLEVSVTLSPQEWSSLQSIDTEGKNRFVFTGGRGGSGHPMVTVASDIAEARTKILAKLDPDNHGGRQPKDVDTRSVGVGSASGIDDGVVSETHTSTTNSSVRSDPK

Legend:
[1] = biological target: 4-fold tyrosine-phosphorylated C-Tir (pC-Tir), EPEC Tir residues 388-550 phosphorylated by Fyn (enteropathogenic Escherichia coli (EPEC)) (UniProt B7UM99); assay: NMR titration
SEC + other: SAXS = biological target: the molecule itself; assay: SEC + other: SAXS

Chain of 4-fold tyrosine-phosphorylated C-Tir (pC-Tir), EPEC Tir residues 388-550 phosphorylated by Fyn (enteropathogenic Escherichia coli (EPEC)) (B7UM99 388-550): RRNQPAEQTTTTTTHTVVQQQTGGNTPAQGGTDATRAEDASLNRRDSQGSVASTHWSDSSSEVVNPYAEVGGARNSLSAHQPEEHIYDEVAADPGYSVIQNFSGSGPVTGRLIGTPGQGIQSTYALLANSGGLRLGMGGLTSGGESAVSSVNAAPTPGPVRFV

Row | Molecule | apparent local KD of the remaining pY sites (pY474, pY483, pY511) [1] [μM] | fold enhancement of binding at the Y511 ITIM against unphosphorylated C-Tir [1] [fold] | stoichiometry N (SEC + other: SAXS)
1 | C-terminal SH2 domain (C-SH2) of host tyrosine phosphatase SHP-1 (domain or fragment) | 3 to 9 | 10 | –
2 | B1 | – | – | 2
3 | B2 | – | – | 2
